Assay results from US20090175863A1 (BIOTEST, published 2009).
Values joined by “and” are separate entries in the source; they are usually repeats but may differ in a detail not shown here. Identical values can stand only once.

T1: CD138 expressed on the cell surface (OPM-2 cells, MOLP-8 cells) (human, UniProt P18827 23-310)
T1 construct: whole, on cells; also called syndecan-1; CD138+ OPM-2
T1 sequence (looked up): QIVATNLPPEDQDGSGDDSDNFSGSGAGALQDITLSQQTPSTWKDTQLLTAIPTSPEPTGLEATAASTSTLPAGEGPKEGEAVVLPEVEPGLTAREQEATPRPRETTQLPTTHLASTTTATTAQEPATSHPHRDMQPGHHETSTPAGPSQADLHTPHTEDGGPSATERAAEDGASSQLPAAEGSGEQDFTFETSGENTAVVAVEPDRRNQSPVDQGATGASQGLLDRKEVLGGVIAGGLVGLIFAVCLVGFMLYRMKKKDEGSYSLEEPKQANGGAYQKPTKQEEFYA

T2: Soluble CD138 antigen purified from U-266 cell culture supernatant, biotinylated (human, UniProt P18827 23-245, limits assumed, biotinylated with Sulfo-NHS-LC-Biotin on primary amino groups (lysine residues); positions not stated)
T2 construct: Natural soluble (shed) CD138 captured on a streptavidin sensor chip; also called bCD138; biotinylated CD138
T2 sequence (looked up): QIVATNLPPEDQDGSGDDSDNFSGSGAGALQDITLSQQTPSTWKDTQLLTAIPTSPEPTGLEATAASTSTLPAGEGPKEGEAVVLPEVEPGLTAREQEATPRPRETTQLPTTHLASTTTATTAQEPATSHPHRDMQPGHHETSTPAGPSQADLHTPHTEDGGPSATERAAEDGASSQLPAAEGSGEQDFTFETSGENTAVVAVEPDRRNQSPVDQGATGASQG

B1: nBT062-SPP-DM1 (antibody, V domains shown)
VH: QVQLQQSGSELMMPGASVKISCKATGYTFSNYWIEWVKQRPGHGLEWIGEILPGTGRTIYNEKFKGKATFTADISSNTVQMQLSSLTSEDSAVYYCARRDYYGNFYYAMDYWGQGTSVTVSS
VL: DIQMTQSTSSLSASLGDRVTISCSASQGINNYLNWYQQKPDGTVELLIYYTSTLQSGVPSRFSGSGSGTDYSLTISNLEPEDIGTYYCQQYSKLPRTFGGGTKLEIKR
B2: nBT062-SMCC-DM1 (antibody, V domains shown)
VH: B1 VH
VL: B1 VL
B3: B-B4-SPP-DM1 (antibody, V domains shown)
VH: B1 VH
VL: DIQMTQSTSSLSASLGDRVTISCSASQGINNYLNWYQQKPDGTVELLIYYTSTLQSGVPSRFSGSGSGTDYSLTISNLEPEDIGTYYCQQYSKLPRTFGGGTKLEIK
B4: nBT062 (antibody, human IgG4, kappa, V domains shown)
VH: B1 VH
VL: B1 VL
notes: also called cB-B4; chimeric B-B4

Legend:
[1] = target: T1, CD138 expressed on the cell surface …; experiment: FACS on CD138+ OPM-2 cells, fluorescence-labeled secondary antibody, mean fluorescence against concentration
Description: The mean fluorescence measured in these experiments was plotted against the antibody concentration.
In FIG. 6, the mean fluorescences as measure for the amount of cell bound antibody is plotted against different antibody or conjugate concentrations.

[2] = target: T2, Soluble CD138 antigen purified from …; experiment: SPR (BIACORE C), biotinylated CD138 on SA chip, conjugate as analyte; single experiment
[3] = target: T2, Soluble CD138 antigen purified from …; experiment: SPR (BIACORE C), biotinylated CD138 on SA chip, conjugate as analyte; mean of three experiments, +/- SD

Binder | EC50 (read off the curve) [1] [nM] | Kd [2] | Kd [3] [nM]
B1 | ~1 | – | –
B2 | ~1 | – | –
B3 | – | 2.6 nM and 2.7 nM | 2.6
B4 | ~1 | – | –
